Laboratory results from paper PMC5141385, “Small heat shock proteins sequester misfolding proteins in near-native conformation for cellular protection and efficient refolding” (Nature Communications, 2016).

B1: His6-MDH (malate dehydrogenase) (enzyme)
chain: AKVAVLGASGGIGQPLSLLLKNSPLVSRLTLYDIAHTPGVAADLSHIETRATVKGYLGPEQLPDCLKGCDVVVIPAGVPRKPGMTRDDLFNTNATIVATLTAACAQHCPDAMICIISNPVNSTIPITAEVFKKHGVYNPNKIFGVTTLDIVRANAFVAELKGLDPARVSVPVIGGHAGKTIIPLISQCTPKVDFPQDQLSTLTGRIQEAGTEVVKAKAGAGSATLSMAYAGARFVFSLVDAMNGKEGVVECSFVKSQETDCPYFSTPLLLGKKGIEKNLGIGKISPFEEKMIAEAIPELKASIKKGEEFVKNMK
notes: malate dehydrogenase (MDH), thermolabile model substrate; The aggregation, centrifugation and SEC methods say only 'MDH'; also called His6-tagged MDH; source: E. coli (derivative of MC4100), purified (Ni-IDA)
B2: MDH labelled with 7-diethylcoumarin-3-carboxylic acid (enzyme, UniProt P00346 25-338, looked up)
chain: B1 chain
modifications: 7-diethylcoumarin-3-carboxylic acid (succinimidyl ester labelling, sites not stated)
notes: malate dehydrogenase (MDH) purchased from Roche; also called labelled MDH; MDH (Roche); source: bought: Roche; labelled with 7-diethylcoumarin-3-carboxylic acid succinimidyl ester
B3: Hsp26 (natural protein, S. cerevisiae, UniProt P15992 1-214, looked up)
chain: MSFNSPFFDFFDNINNEVDAFNRLLGEGGLRGYAPRRQLANTPAKDSTGKEVARPNNYAGALYDPRDETLDDWFDNDLSLFPSGFGFPRSVAVPVDILDHDNNYELKVVVPGVKSKKDIDIEYHQNKNQILVSGEIPSTLNEESKDKVKVKESSSGKFKRVITLPDYPGVDADNIKADYANGVLTLTVPKLKPQKDGKNHVKKIEVSSQESWGN
notes: Hsp26, small heat shock protein of S. cerevisiae; also called sHsp; small heat shock protein Hsp26; source: E. coli (derivative of MC4100), solubilised from the pellet in 8 M urea, purified (Ni-IDA, Sephacryl S-300); not shown: His6-Smt3, N-terminal, cleaved

Columns and labels:
Details in all cases: both partners purified
[1] = biological target: T1, Hsp42 (S. cerevisiae, UniProt Q12329 1-375); assay: cross-linking; DSS cross-linking of Hsp42/MDH complexes; MDH cross-link pattern by western blot
T1 construct: Hsp42, small heat shock protein of S. cerevisiae; Cloned into pMal-c2E; the enterokinase site was changed to a PreScission site, so residues of that site may remain at the N-terminus; also called sHsp; small heat shock protein Hsp42; source: E. coli ArcticExpress, purified (amylose resin, PreScission cleavage, Sephacryl S-300); not shown: MBP, N-terminal, cleaved

[2] = biological target: T1, Hsp42; assay: FRET or BRET; MDH–YFP and coumarin-labelled MDH (each 0.25 μM) mixed in preheated buffer C at 47 °C (heat-induced co-aggregation); signal at 527 nm; with or without Hsp26 or Hsp42
[3] = biological target: B2; assay: as above
[4] = biological target: B1; assay: co-sedimentation; MDH (0.5 μM) denatured 60 min at 41 °C in buffer C with or without sHsps (0.1–2.5 μM); 10–50% glycerol gradient, 40,000 r.p.m., 1 h, 4 °C, and supernatant-pellet centrifugation; fractions by SDS-PAGE and western blot

T1 sequence (Q12329 whole entry): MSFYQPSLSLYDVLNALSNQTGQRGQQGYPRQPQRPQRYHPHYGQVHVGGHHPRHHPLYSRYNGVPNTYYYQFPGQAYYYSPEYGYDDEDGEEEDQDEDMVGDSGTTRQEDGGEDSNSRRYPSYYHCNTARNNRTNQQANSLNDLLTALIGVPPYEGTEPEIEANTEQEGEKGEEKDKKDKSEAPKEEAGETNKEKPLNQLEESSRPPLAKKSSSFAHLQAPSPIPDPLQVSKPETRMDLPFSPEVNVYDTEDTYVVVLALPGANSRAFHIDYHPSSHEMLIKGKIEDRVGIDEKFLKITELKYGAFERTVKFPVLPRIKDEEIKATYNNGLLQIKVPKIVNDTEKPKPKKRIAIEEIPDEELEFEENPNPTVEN

Binder: B1
- binding result [1]: binds

Binder: B2
- binding result [2]: binds

Binder: B3
- binding result [3]: binds
- binding result [4]: binds
